According to patent US12303551B2, “Cellular immunotherapy compositions and uses thereof” (CERO THERPEUTICS HOLDINGS, INC., priority 2018, dated 2025):

B1: CER104: Chimeric engulfment receptor: Tim4 binding, Tim4 transmembrane, TLR8 and DAP12 signaling; SEQ ID NO: 139 (protein)
chain: MSKGLLLLWLVTELWWLYLTPAASEDTIIGFLGQPVTLPCHYLSWSQSRNSMCWGKGSCPNSKCNAELLRTDGTRIISRKSTKYTLLGKVQFGEVSLTISNTNRGDSGVYCCRIEVPGWFNDVKKNVRLELRRATTTKKPTTTTRPTTTPYVTTTTPELLPTTVMTTSVLPTTTPPQTLATTAFSTAVTTCPSTTPGSFSQETTKGSAFTTESETLPASNHSQRSMMTISTDIAVLRPTGSNPGILPSTSQLTTQKTTLTTSESLQKTTKSHQINSRQTILIIACCVGFVLMVLLFLAFLHHLFYWDVWFIYNVCLAKVKGYRSLSTSQTFYDAYISYDTKDASVTDWVINELRYHLEESRDKNVLLCLEERDWDPGLAIIDNLMQSINQSKKTVFVLTKKYAKSWNFKTAFYLALQRLMDENMDVIIFILLEPVLQHSQYLRLRQRICKSSILQWPDNPKAEGLFWQTLRNVVLTENDSRYNNMYVDSIKQYYFLGRLVPRGRGAAEAATRKQRITETESPYQELQGQRSDVYSDLNTQRPYYK
modifications: CER104, amino acids 1-22 are signal peptide
B2: CER116: Chimeric engulfment receptor: Tim4 binding, Tim4 transmembrane, TRAF6 and TLR8 signaling; SEQ ID NO: 152 (protein)
chain: MSKGLLLLWLVTELWWLYLTPAASEDTIIGFLGQPVTLPCHYLSWSQSRNSMCWGKGSCPNSKCNAELLRTDGTRIISRKSTKYTLLGKVQFGEVSLTISNTNRGDSGVYCCRIEVPGWFNDVKKNVRLELRRATTTKKPTTTTRPTTTPYVTTTTPELLPTTVMTTSVLPTTTPPQTLATTAFSTAVTTCPSTTPGSFSQETTKGSAFTTESETLPASNHSQRSMMTISTDIAVLRPTGSNPGILPSTSQLTTQKTTLTTSESLQKTTKSHQINSRQTILIIACCVGFVLMVLLFLAFLMSLLNCENSCGSSQSESDCCVAMASSCSAVTKDDSVGGTASTGNLSSSFMEEIQGYDVEFDPPLESKYECPICLMALREAVQTPCGHRFCKACIIKSIRDAGHKCPVDNEILLENQLFPDNFAKREILSLMVKCPNEGCLHKMELRHLEDHQAHCEFALMDCPQCQRPFQKFHINIHILKDCPRRQVSCDNCAASMAFEDKEIHDQNCPLANVICEYCNTILIREQMPNHYDLDCPTAPIPCTFSTFGCHEKMQRNHLARHLQENTQSHMRMLAHHLFYWDVWFIYNVCLAKVKGYRSLSTSQTFYDAYISYDTKDASVTDWVINELRYHLEESRDKNVLLCLEERDWDPGLAIIDNLMQSINQSKKTVFVLTKKYAKSWNFKTAFYLALQRLMDENMDVIIFILLEPVLQHSQYLRLRQRICKSSILQWPDNPKAEGLFWQTLRNVVLTENDSRYNNMYVDSIKQY
modifications: CER116, amino acids 1-22 are signal peptide
B3: CER117: Chimeric engulfment receptor: Tim4 binding, Tim4 transmembrane, TLR8 and TRAF6 signaling; SEQ ID NO: 153 (protein)
chain: MSKGLLLLWLVTELWWLYLTPAASEDTIIGFLGQPVTLPCHYLSWSQSRNSMCWGKGSCPNSKCNAELLRTDGTRIISRKSTKYTLLGKVQFGEVSLTISNTNRGDSGVYCCRIEVPGWFNDVKKNVRLELRRATTTKKPTTTTRPTTTPYVTTTTPELLPTTVMTTSVLPTTTPPQTLATTAFSTAVTTCPSTTPGSFSQETTKGSAFTTESETLPASNHSQRSMMTISTDIAVLRPTGSNPGILPSTSQLTTQKTTLTTSESLQKTTKSHQINSRQTILIIACCVGFVLMVLLFLAFLHHLFYWDVWFIYNVCLAKVKGYRSLSTSQTFYDAYISYDTKDASVTDWVINELRYHLEESRDKNVLLCLEERDWDPGLAIIDNLMQSINQSKKTVFVLTKKYAKSWNFKTAFYLALQRLMDENMDVIIFILLEPVLQHSQYLRLRQRICKSSILQWPDNPKAEGLFWQTLRNVVLTENDSRYNNMYVDSIKQYMSLLNCENSCGSSQSESDCCVAMASSCSAVTKDDSVGGTASTGNLSSSFMEEIQGYDVEFDPPLESKYECPICLMALREAVQTPCGHRFCKACIIKSIRDAGHKCPVDNEILLENQLFPDNFAKREILSLMVKCPNEGCLHKMELRHLEDHQAHCEFALMDCPQCQRPFQKFHINIHILKDCPRRQVSCDNCAASMAFEDKEIHDQNCPLANVICEYCNTILIREQMPNHYDLDCPTAPIPCTFSTFGCHEKMQRNHLARHLQENTQSHMRMLA
modifications: CER117, amino acids 1-22 are signal peptide

Test system: HPV+ SCC152 target cells
Experiment: Mass cytometry (CyTOF) viSNE marker analysis of CER-transduced CD4+ T cells after antigen encounter
Assay type: cell-based
Conditions: for memory formation after antigen encounter: CER-transduced CD4+ T cells; for viSNE islands expressing T cell activation marker CD69 / viSNE islands expressing intracellular marker IFNγ: CER-transduced CD4+ T cells co-cultured with E7 TCR CD8+ T cells and SCC152; for viSNE islands expressing naïve T cell marker CD45RA within the CCR7+ population: compared to controls
Text: FIG. 64A-64B show viSNE maps of mass cytometry data of CER-transduced CD4+ T cells upon antigen encounter. CER-transduced CD4+ T cells were co-cultured with E7-specific TCR-transduced CD8+ T cells and HPV+ SCC152 target cells and then interrogated by mass cytometry (CyTof). Intact CER-CD4+ T cells are shown in plots displaying tSNE1 and tSNE2 axes. Nine intracellular markers were used for the viSNE analysis. Each dot represents a single cell. […] FIG. 64B: Populations of CD4^+ T cells were generated using a clustering algorithm from all 32 markers and overlaid onto the viSNE map.
(§1) FIGS. 65A-65B show viSNE maps of mass cytometry data of CER-expressing CD4+ T cells upon antigen encounter. CER-transduced CD4+ T cells were co-cultured with E7-specific TCR-transduced CD8+ T cells and HPV+ SCC152 target cells and then interrogated by mass cytometry (CyTof). Intact CER-CD4+ T cells are shown in plots displaying tSNE1 and tSNE2 axes. Eighteen cell surface markers were used for the viSNE analysis. Each dot represents a single cell. FIG. 65A: Populations of CD4^+ T cells were generated using a clustering algorithm from all 18 markers and overlaid onto the viSNE map. […] FIG. 65B: Color plots show the phenotype across viSNE ‘islands.’ Red represents high expression and blue represents low expression for each marker. Highlighted region indicates cells expressing T cell activation marker CD69.
as §1, with “FIGS. 66A-66B” for “FIGS. 65A-65B”, “FIG. 66A:” for “FIG. 65A:”, “FIG. 66B:” for “FIG. 65B:”, “cells the naïve” for “cells expressing”, “cell” for “cell activation”, “marker CD45RA.” for “marker CD69.”
CD4+ T cells were transduced with lentiviral vector comprising CER104, CER116, or CER117 nucleic acid. CER104 (SEQ ID NO:139) comprises a Tim4 binding domain, Tim4 transmembrane domain, and an engulfment signaling domain comprising a primary engulfment signaling domain comprising a TLR8 signaling domain and a secondary engulfment signaling domain comprising a DAP12 signaling domain. CER116 (SEQ ID NO:152) comprises a Tim4 binding domain, Tim4 transmembrane domain, and an engulfment signaling domain comprising a primary engulfment signaling domain comprising a TRAF6 signaling domain and a secondary engulfment signaling domain comprising a TLR8 signaling domain. CER117 (SEQ ID NO:153) comprises a Tim4 binding domain, Tim4 transmembrane domain, and an engulfment signaling domain comprising a primary engulfment signaling domain comprising a TLR8 signaling domain and a secondary engulfment signaling domain comprising a TRAF6 signaling domain. CER-transduced CD4+ T cells were co-cultured with E7 TCR-transduced CD8+ T cells and HPV+ SCC152 target cells and interrogated by mass cytometry (CyTOF) with viSNE for visualization of high dimensional single cell data (FIGS. 64-66). Intact CER-transduced CD4+ T cells are shown in plots displaying tSNE1 (horizontal) and tSNE2 (vertical) axes. 27 intracellular markers were used for the viSNE analysis. Each dot represents a single cell. […] Red represents high expression and blue represents low expression for each marker. Populations of CD4^+ T cells were generated using a clustering algorithm from all 27 markers and overlaid onto the viSNE map. […] Populations of CD4^+ T cells were generated using a clustering algorithm from all 18 markers and overlaid onto the viSNE map (FIG. 65A). […]

| Molecule | memory formation after antigen encounter | viSNE islands expressing T cell activation marker CD69 | viSNE islands expressing intracellular marker IFNγ | viSNE islands expressing naïve T cell marker CD45RA within the CCR7+ population |
| --- | --- | --- | --- | --- |
| B1 | associated with memory formation after antigen encounter | enrichment of islands expressing the T cell activation marker CD69 | enrichment of islands expressing the intracellular marker IFNγ | loss of islands expressing the naïve T cell marker CD45RA |
| B2 | associated with memory formation after antigen encounter | enrichment of islands expressing the T cell activation marker CD69 | enrichment of islands expressing the intracellular marker IFNγ | loss of islands expressing the naïve T cell marker CD45RA |
| B3 | – | – | enrichment of islands expressing the intracellular marker IFNγ | – |
